Assay results: the supplement of paper PMC10724198
± gives the standard deviation of the averaged measurements.

Test system: Saccharomyces cerevisiae
Test: protein stability index of tFT-peptide fusion (C-terminal peptide) (PSI (0-1 scale)); higher = more stable (slower turnover)
Conditions: temperature: 30 C
Protocol: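 MPS profiling in S. cerevisiae of the yeast C-terminome library: the last 12 aa of each annotated ORF are fused to the C-terminus of a sfGFP-mCherry timer, after a GGGS linker. Cells are FACS-sorted into 8 mCherry/sfGFP bins and deep-sequenced. PSI runs from 0 (unstable) to 1 (stable); wild type and das1Δ backgrounds, two technical replicates each.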

[1] = genetic background: das1 deletion

Work on SKDLGNVLTNLL [ESF2 C-terminal 12 aa] yielded a protein stability index [1] of 0.6902 ± 0.005 and a protein stability index (genetic background: wild type) of 0.679 ± 0.035.

SSSSFISYPPQR [MAD3 C-terminal 12 aa] gave a protein stability index [1] of 0.728 ± 0.019 and a protein stability index (genetic background: wild type) of 0.6977 ± 0.0019.

In the case of DLVKAAAGSDNE [RRP15 C-terminal 12 aa], the protein stability index [1] is reported as 0.6823 ± 0.0059 and the protein stability index (genetic background: wild type) is reported as 0.675 ± 0.018.

LKRTAIQFAAFS [SEC5 C-terminal 12 aa] showed a protein stability index [1] of 0.6855 ± 0.0022 and a protein stability index (genetic background: wild type) of 0.6844 ± 0.0012.

DAHIYNKRSKPD [PHO80 C-terminal 12 aa] was tested, and the protein stability index [1] was 0.646 ± 0.012 and the protein stability index (genetic background: wild type) was 0.662 ± 0.04.

Work on IPMTLTTLSTVF [UPA2 C-terminal 12 aa] yielded a protein stability index [1] of 0.619 ± 0.0083 and a protein stability index (genetic background: wild type) of 0.628 ± 0.012.

SNWARIFFCHHD [YDL186W C-terminal 12 aa] was tested, and the protein stability index [1] was 0.75 ± 0.015 and the protein stability index (genetic background: wild type) was 0.713 ± 0.028.

For NFGVSSSFSFKP [PEX3 C-terminal 12 aa], the protein stability index [1] was 0.7032 ± 0.003 and the protein stability index (genetic background: wild type) was 0.7154 ± 0.0041.

For FKAKFRKVKINA [YKR015C C-terminal 12 aa], the protein stability index [1] was 0.6339 ± 0.0053 and the protein stability index (genetic background: wild type) was 0.134 ± 0.0025.

With YGLLKFHSVFES [YMR209C C-terminal 12 aa] the protein stability index [1] was 0.707 ± 0.0069 and the protein stability index (genetic background: wild type) was 0.668 ± 0.054.

ICAWLLFFETIH [BST1 C-terminal 12 aa] showed a protein stability index [1] of 0.458 ± 0.018 and a protein stability index (genetic background: wild type) of 0.521 ± 0.059.

For “WFICRMLSKVTL [YNR003W-A C-terminal 12 aa]”, the protein stability index [1] was 0.609 ± 0.012 and the protein stability index (genetic background: wild type) was 0.595 ± 0.012.

For ETIWTEWHNLKK [DIG2 C-terminal 12 aa], the protein stability index [1] was 0.726 ± 0.059 and the protein stability index (genetic background: wild type) was 0.686 ± 0.0099.

Sequence KVKCALERKPYL [ZAP1 C-terminal 12 aa] has a protein stability index [1] of 0.706 ± 0.05 and a protein stability index (genetic background: wild type) of 0.6754 ± 0.00096.

MDLEKDRYYDLS [DAS2 C-terminal 12 aa] showed a protein stability index [1] of 0.6908 ± 0.0068 and a protein stability index (genetic background: wild type) of 0.68 ± 0.027.

In the case of IGWSVFAEWLCV [CYK3 C-terminal 12 aa], the protein stability index [1] is reported as 0.504 ± 0.02 and the protein stability index (genetic background: wild type) is reported as 0.5137 ± 0.003.

In the case of TDLENETFIYPL [YCT1 C-terminal 12 aa], the protein stability index [1] is reported as 0.722 ± 0.022 and the protein stability index (genetic background: wild type) is reported as 0.793 ± 0.072.

Work on SRIELELKNIGL [ECM29 C-terminal 12 aa] yielded a protein stability index [1] of 0.684 ± 0.0096 and a protein stability index (genetic background: wild type) of 0.762 ± 0.0041.

Sequence NEIATKLEETKL [TYS1 C-terminal 12 aa] has a protein stability index [1] of 0.694 ± 0.037 and a protein stability index (genetic background: wild type) of 0.687 ± 0.0072.

RNIDVSNLPSLA [STM1 C-terminal 12 aa] showed a protein stability index [1] of 0.691 ± 0.011 and a protein stability index (genetic background: wild type) of 0.6785 ± 0.0067.

For GCDLDISYAKRL [HRB1 C-terminal 12 aa], the protein stability index [1] was 0.7155 ± 0.0028 and the protein stability index (genetic background: wild type) was 0.695 ± 0.035.

In the case of LKQENAYLLIRR [RPB8 C-terminal 12 aa], the protein stability index [1] is reported as 0.693 ± 0.0081 and the protein stability index (genetic background: wild type) is reported as 0.68 ± 0.01.

YLPRSKWFGILV [ALG14 C-terminal 12 aa] gave a protein stability index [1] of 0.359 ± 0.02 and a protein stability index (genetic background: wild type) of 0.165 ± 0.0058.

With ATTNISVLQECV [VRL1 C-terminal 12 aa] the protein stability index [1] was 0.666 ± 0.018 and the protein stability index (genetic background: wild type) was 0.642 ± 0.011.

Work on ALLDGFVTAAGY [DAK2 C-terminal 12 aa] yielded a protein stability index [1] of 0.745 ± 0.027 and a protein stability index (genetic background: wild type) of 0.728 ± 0.016.

Sequence LYELKGLLGNDS [INP2 C-terminal 12 aa] has a protein stability index [1] of 0.681 ± 0.021 and a protein stability index (genetic background: wild type) of 0.673 ± 0.032.

Work on “RHHEQSHGQEDH [YLR361C-A C-terminal 12 aa]” yielded a protein stability index [1] of 0.6985 ± 0.0034 and a protein stability index (genetic background: wild type) of 0.6868 ± 0.0011.

For WSDKLLQIYARC [SAE2 C-terminal 12 aa], the protein stability index [1] was 0.5447 ± 0.0049 and the protein stability index (genetic background: wild type) was 0.516 ± 0.045.

EAETPGIIDKHQ [SIS2 C-terminal 12 aa] was tested, and the protein stability index [1] was 0.689 ± 0.023 and the protein stability index (genetic background: wild type) was 0.677 ± 0.044.

GTAASEPTPITK [ATP15 C-terminal 12 aa] was tested, and the protein stability index [1] was 0.7295 ± 0.0065 and the protein stability index (genetic background: wild type) was 0.681 ± 0.017.

EWVVPEHMLGPK [FUM1 C-terminal 12 aa] showed a protein stability index [1] of 0.741 ± 0.0091 and a protein stability index (genetic background: wild type) of 0.739 ± 0.041.

QNRFISINKIFW [YDR133C C-terminal 12 aa] gave a protein stability index [1] of 0.7034 ± 0.0032 and a protein stability index (genetic background: wild type) of 0.6671 ± 0.0016.

Work on GTKMEWFFDPLA [IPT1 C-terminal 12 aa] yielded a protein stability index [1] of 0.732 ± 0.025 and a protein stability index (genetic background: wild type) of 0.701 ± 0.0081.

LASDFIGRGYDD [WTM2 C-terminal 12 aa] was tested, and the protein stability index [1] was 0.6962 ± 0.0068 and the protein stability index (genetic background: wild type) was 0.678 ± 0.011.

Sequence LDTLQTASQYLP [VID22 C-terminal 12 aa] has a protein stability index [1] of 0.7056 ± 0.0017 and a protein stability index (genetic background: wild type) of 0.749 ± 0.079.

YLISEKIIRKHL [MET14 C-terminal 12 aa] showed a protein stability index [1] of 0.685 ± 0.017 and a protein stability index (genetic background: wild type) of 0.602 ± 0.026.

In the case of GAMSEGKTGQLN [YLR036C C-terminal 12 aa], the protein stability index [1] is reported as 0.699 ± 0.02 and the protein stability index (genetic background: wild type) is reported as 0.6988 ± 0.0014.

ARLLRFWDHIIR [SHU1 C-terminal 12 aa] gave a protein stability index [1] of 0.728 ± 0.016 and a protein stability index (genetic background: wild type) of 0.686 ± 0.06.

Work on NESLSTILLYII [YKR033C C-terminal 12 aa] yielded a protein stability index [1] of 0.644 ± 0.008 and a protein stability index (genetic background: wild type) of 0.561 ± 0.0068.

Sequence SKLVKEYSVELR [MSF1 C-terminal 12 aa] has a protein stability index [1] of 0.687 ± 0.019 and a protein stability index (genetic background: wild type) of 0.663 ± 0.05.

With IRRHAYYNQDDD [SLA2 C-terminal 12 aa] the protein stability index [1] was 0.677 ± 0.02 and the protein stability index (genetic background: wild type) was 0.664 ± 0.0037.
